Results published in paper PMC5738438, “Dynamic intramolecular regulation of the histone chaperone nucleoplasmin controls histone binding and release” (Nature Communications, 2017).

B1: Npm core+A2 truncation (1–145) (domain or fragment)
chain: ASTASNTSKVEKPVSLIWGCELNEQNKTFAFKIEDEEEKCEHQLALRTVCLGDKAKDEFHIVEIVTQEEGKEKPVPIASLKPSILPMATMVGIELTPPVTFRLKAGSGPVYISGQHVAMEEDYSWAEEEDEGEEEEEEEEDPESP

What was measured:
[1] = target: the molecule itself; experiment: SEC-SAXS; complex of core+A2 and H2A/H2B purified by SEC, 4.83 mg/mL on Superdex 200 PC3.2/300, 5 mM DTT; Porod volume
H2A/H2B dimer = H2A/H2B dimer (Xenopus, UniProt P06897 2-123; P02281 1-126); experiment: other fluorescence titration; equilibrium tryptophan (W125) fluorescence, 340/360 ratio; tail or peptide 0.5 µM, histones titrated; 20 mM Tris pH 7.6, 150 mM NaCl, 1 mM EDTA, 1 mM DTT, 0.01% NP-40; single-site model; settings: both partners purified

| Binder | stoichiometry N [1] | Kd (H2A/H2B dimer) [nM] |
| --- | --- | --- |
| B1 | 5 | – |
| MEEDYSWAEEEDEGEEEEEEEEDPESP [A2 peptide (residues 119–145)] | – | < 50 |
